The values below come from PMC3617563.

This experiment concerns the target C276A USP2 catalytic core (inactive active-site mutant) (human) (UniProt O75604). The experiment can be described thus: stopped-flow fluorescence.

Chain of C276A USP2 catalytic core (inactive active-site mutant) (human) (O75604 259-605 C276A): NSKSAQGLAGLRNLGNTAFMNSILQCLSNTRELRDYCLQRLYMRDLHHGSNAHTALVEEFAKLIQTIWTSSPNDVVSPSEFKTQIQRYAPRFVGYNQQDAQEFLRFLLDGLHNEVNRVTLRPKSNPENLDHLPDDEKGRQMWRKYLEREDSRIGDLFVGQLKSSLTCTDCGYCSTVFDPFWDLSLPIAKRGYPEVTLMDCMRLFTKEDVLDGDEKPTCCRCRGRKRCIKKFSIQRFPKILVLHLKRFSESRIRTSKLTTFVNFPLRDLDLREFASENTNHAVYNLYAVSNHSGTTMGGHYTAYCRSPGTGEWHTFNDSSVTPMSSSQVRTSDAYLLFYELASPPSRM

In turn, “native K48-linked diubiquitin (from UniProt P0CG48 1-76)” had a k1 (first step, association) of 230000 M⁻¹ s⁻¹ and a k−1 (first step, dissociation) of 0.06 s⁻¹.
